From paper PMC3883112 (Cell reports, 2013)

Molecular target: T1, GST-Pol32 (full length Pol32) (yeast (S. cerevisiae), UniProt P47110 1-350)
T1 sequence (looked up): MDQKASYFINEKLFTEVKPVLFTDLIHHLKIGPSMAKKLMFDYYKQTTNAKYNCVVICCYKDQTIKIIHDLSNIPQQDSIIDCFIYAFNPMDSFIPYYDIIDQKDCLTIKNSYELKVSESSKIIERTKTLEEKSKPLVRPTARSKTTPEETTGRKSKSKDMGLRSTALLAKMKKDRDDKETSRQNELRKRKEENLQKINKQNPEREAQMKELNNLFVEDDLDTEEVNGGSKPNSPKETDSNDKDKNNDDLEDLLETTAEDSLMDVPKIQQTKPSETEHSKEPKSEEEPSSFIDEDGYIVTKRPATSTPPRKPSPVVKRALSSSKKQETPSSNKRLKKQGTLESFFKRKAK
Experiment: pull-down

B1: Rev7 used in the GST pull-down (natural protein, yeast (S. cerevisiae), UniProt P38927 1-245, looked up)
chain: MNRWVEKWLRVYLKCYINLILFYRNVYPPQSFDYTTYQSFNLPQFVPINRHPALIDYIEELILDVLSKLTHVYRFSICIINKKNDLCIEKYVLDFSELQHVDKDDQIITETEVFDEFRSSLNSLIMHLEKLPKVNDDTITFEAVINAIELELGHKLDRNRRVDSLEEKAEIERDSNWVKCQEDENLPDNNGFQPPKIKLTSLVGSDVGPLIIHQFSEKLISGDDKILNGVYSQYEEGESIFGSLF
  binding result: binds
